Target: fusion of human collagen type I, alpha 1 solubility-enhancing sequence (HsCol1a1-27), TEV cleavage site ENLYFQG and human keratin type 31 polypeptide fragment (K31)

B1: AcTEV protease (protein)
chain: GESLFKGPRDYNPISSTICHLTNESDGHTTSLYGIGFGPFIITNKHLFRRNNGTLLVQSLHGVFKVKNTTTLQQHLIDGRDMIIIRMPKDFPPFPQKLKFREPQREERICLVTTNFQTKSMSSMVSDTSCTFPSSDGIFWKHWIQTKDGQCGSPLVSTRDGFIVGIHSASNFTNTNNYFTSVPKNFMELLTNQEAQQWVSGWRLNADSVLWGGHKVFMSKPEEPFQPVKEATQLMNELVYSQ
  cleavage of the fusion protein, SDS-PAGE with Coomassie Blue: confirm that the cleavage was successful

— patent US20250257107
